Experiments:
[1] = target: K. pneumoniae OqxB (K. pneumoniae); experiment: crystal structure
[2] = target: K. pneumoniae OqxB (K. pneumoniae); experiment: cryo-EM structure
[3] = target: the molecule itself; experiment: cryo-EM structure
[4] = target: the molecule itself; experiment: crystal structure

Molecule: K. pneumoniae OqxB (natural protein)
- stoichiometry N [1]: 3
- stoichiometry N [2]: 3

B1: E. coli AcrB V612F (natural protein)
chain: MPNFFIDRPIFAWVIAIIIMLAGGLAILKLPVAQYPTIAPPAVTISASYPGADAKTVQDTVTQVIEQNMNGIDNLMYMSSNSDSTGTVQITLTFESGTDADIAQVQVQNKLQLAMPLLPQEVQQQGVSVEKSSSSFLMVVGVINTDGTMTQEDISDYVAANMKDAISRTSGVGDVQLFGSQYAMRIWMNPNELNKFQLTPVDVITAIKAQNAQVAAGQLGGTPPVKGQQLNASIIAQTRLTSTEEFGKILLKVNQDGSRVLLRDVAKIELGGENYDIIAEFNGQPASGLGIKLATGANALDTAAAIRAELAKMEPFFPSGLKIVYPYDTTPFVKISIHEVVKTLVEAIILVFLVMYLFLQNFRATLIPTIAVPVVLLGTFAVLAAFGFSINTLTMFGMVLAIGLLVDDAIVVVENVERVMAEEGLPPKEATRKSMGQIQGALVGIAMVLSAVFVPMAFFGGSTGAIYRQFSITIVSAMALSVLVALILTPALCATMLKPIAKGDHGEGKKGFFGWFNRMFEKSTHHYTDSVGGILRSTGRYLVLYLIIVVGMAYLFVRLPSSFLPDEDQGVFMTMVQLPAGATQERTQKVLNEVTHYYLTKEKNNVESVFAFNGFGFAGRGQNTGIAFVSLKDWADRPGEENKVEAITMRATRAFSQIKDAMVFAFNLPAIVELGTATGFDFELIDQAGLGHEKLTQARNQLLAEAAKHPDMLTSVRPNGLEDTPQFKIDIDQEKAQALGVSINDINTTLGAAWGGSYVNDFIDRGRVKKVYVMSEAKYRMLPDDIGDWYVRAADGQMVPFSAFSSSRWEYGSPRLERYNGLPSMEILGQAAPGKSTGEAMELMEQLASKLPTGVGYDWTGMSYQERLSGNQAPSLYAISLIVVFLCLAALYESWSIPFSVMLVVPLGVIGALLAATFRGLTNDVYFQVGLLTTIGLSAKNAILIVEFAKDLMDKEGKGLIEATLDAVRMRLRPILMTSLAFILGVMPLVISTGAGSGAQNAVGTGVMGGMVTATVLAIFFVPVFFVVVRRRFSRKNEDIEHSHTVDHH
- stoichiometry N [3]: 3

B2: E. coli AcrB V612N (natural protein)
chain: MPNFFIDRPIFAWVIAIIIMLAGGLAILKLPVAQYPTIAPPAVTISASYPGADAKTVQDTVTQVIEQNMNGIDNLMYMSSNSDSTGTVQITLTFESGTDADIAQVQVQNKLQLAMPLLPQEVQQQGVSVEKSSSSFLMVVGVINTDGTMTQEDISDYVAANMKDAISRTSGVGDVQLFGSQYAMRIWMNPNELNKFQLTPVDVITAIKAQNAQVAAGQLGGTPPVKGQQLNASIIAQTRLTSTEEFGKILLKVNQDGSRVLLRDVAKIELGGENYDIIAEFNGQPASGLGIKLATGANALDTAAAIRAELAKMEPFFPSGLKIVYPYDTTPFVKISIHEVVKTLVEAIILVFLVMYLFLQNFRATLIPTIAVPVVLLGTFAVLAAFGFSINTLTMFGMVLAIGLLVDDAIVVVENVERVMAEEGLPPKEATRKSMGQIQGALVGIAMVLSAVFVPMAFFGGSTGAIYRQFSITIVSAMALSVLVALILTPALCATMLKPIAKGDHGEGKKGFFGWFNRMFEKSTHHYTDSVGGILRSTGRYLVLYLIIVVGMAYLFVRLPSSFLPDEDQGVFMTMVQLPAGATQERTQKVLNEVTHYYLTKEKNNVESVFANNGFGFAGRGQNTGIAFVSLKDWADRPGEENKVEAITMRATRAFSQIKDAMVFAFNLPAIVELGTATGFDFELIDQAGLGHEKLTQARNQLLAEAAKHPDMLTSVRPNGLEDTPQFKIDIDQEKAQALGVSINDINTTLGAAWGGSYVNDFIDRGRVKKVYVMSEAKYRMLPDDIGDWYVRAADGQMVPFSAFSSSRWEYGSPRLERYNGLPSMEILGQAAPGKSTGEAMELMEQLASKLPTGVGYDWTGMSYQERLSGNQAPSLYAISLIVVFLCLAALYESWSIPFSVMLVVPLGVIGALLAATFRGLTNDVYFQVGLLTTIGLSAKNAILIVEFAKDLMDKEGKGLIEATLDAVRMRLRPILMTSLAFILGVMPLVISTGAGSGAQNAVGTGVMGGMVTATVLAIFFVPVFFVVVRRRFSRKNEDIEHSHTVDHH
- stoichiometry N [4]: 3

B3: E. coli AcrB V612W (natural protein)
chain: MPNFFIDRPIFAWVIAIIIMLAGGLAILKLPVAQYPTIAPPAVTISASYPGADAKTVQDTVTQVIEQNMNGIDNLMYMSSNSDSTGTVQITLTFESGTDADIAQVQVQNKLQLAMPLLPQEVQQQGVSVEKSSSSFLMVVGVINTDGTMTQEDISDYVAANMKDAISRTSGVGDVQLFGSQYAMRIWMNPNELNKFQLTPVDVITAIKAQNAQVAAGQLGGTPPVKGQQLNASIIAQTRLTSTEEFGKILLKVNQDGSRVLLRDVAKIELGGENYDIIAEFNGQPASGLGIKLATGANALDTAAAIRAELAKMEPFFPSGLKIVYPYDTTPFVKISIHEVVKTLVEAIILVFLVMYLFLQNFRATLIPTIAVPVVLLGTFAVLAAFGFSINTLTMFGMVLAIGLLVDDAIVVVENVERVMAEEGLPPKEATRKSMGQIQGALVGIAMVLSAVFVPMAFFGGSTGAIYRQFSITIVSAMALSVLVALILTPALCATMLKPIAKGDHGEGKKGFFGWFNRMFEKSTHHYTDSVGGILRSTGRYLVLYLIIVVGMAYLFVRLPSSFLPDEDQGVFMTMVQLPAGATQERTQKVLNEVTHYYLTKEKNNVESVFAWNGFGFAGRGQNTGIAFVSLKDWADRPGEENKVEAITMRATRAFSQIKDAMVFAFNLPAIVELGTATGFDFELIDQAGLGHEKLTQARNQLLAEAAKHPDMLTSVRPNGLEDTPQFKIDIDQEKAQALGVSINDINTTLGAAWGGSYVNDFIDRGRVKKVYVMSEAKYRMLPDDIGDWYVRAADGQMVPFSAFSSSRWEYGSPRLERYNGLPSMEILGQAAPGKSTGEAMELMEQLASKLPTGVGYDWTGMSYQERLSGNQAPSLYAISLIVVFLCLAALYESWSIPFSVMLVVPLGVIGALLAATFRGLTNDVYFQVGLLTTIGLSAKNAILIVEFAKDLMDKEGKGLIEATLDAVRMRLRPILMTSLAFILGVMPLVISTGAGSGAQNAVGTGVMGGMVTATVLAIFFVPVFFVVVRRRFSRKNEDIEHSHTVDHH
- stoichiometry N [3]: 3

— paper PMC11601597 (bioRxiv, 2024)
